Switch fluorescence ratio data for 79 sequences are collected here from the supplement of paper PMC10126150.

The subject of the data set is ATP. Kind of data set: switch fluorescence ratio, 500 uM ATP over buffer (Cy3 cluster intensity, sum of 5 cycles each) (fold (ratio)); higher = stronger signal-on switching upon ATP binding; sequences stand for … in TCGTCGGCAGCGTCAGATGTGTATAAGAGACAGTTTTTTTTTTTTTTTTTTTTTTTTT…TC. The settings on record: aptamer strand: ATP DNA aptamer (quencher-CACCTGGGGGAGTATTGCGGAGGAAGG + anchor), 100 nM annealed; ATP concentration: 500 uM. The method in brief: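 Cy3-labelled switching-strand clusters on a modified Illumina MiSeq flow-cell were annealed to 100 nM quencher-labelled ATP aptamer, imaged in selection buffer, then imaged after 15 min with 500 uM ATP at 22 °C. Five buffer/ATP cycles ran, with NaOH stripping and re-annealing between them. The fluorescence ratio is summed target-cycle over summed buffer-cycle Cy3 intensity per cluster, averaged per switch-domain sequence. Clusters outside 100-1000 RFU were excluded.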

± gives the standard deviation of the averaged measurements.
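Further: ATP exposure 15 min at 22 °C before imaging.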

Regarding CCTGACTTTC, the switch fluorescence ratio turned out to be 1.11 ± 0.045.
In the case of CCTGACTTTG, the switch fluorescence ratio turned out to be 0.972 ± 0.043.
The result for CCTGAGGGCG reads 1.037 ± 0.01; that for CCTGAGTCGT, 1.09 ± 0.017.
The same measure for CCTGATGCGG: 1.02 ± 0.059; for CCTGCAGAGC: 1.28 ± 0.058.
The result for CCTGCATGTG reads 1.26 ± 0.02; that for CCTGCCCTGT, 1.108 ± 0.0022; that for CCTGCCTCCT, 2.27 ± 0.041.
Take CCTGCGTTTT: the switch fluorescence ratio is 1.75 ± 0.32.
CCTGCTCATC: the switch fluorescence ratio came to 1.99 ± 0.22.
The same measure for CCTGCTGGCG: 1.04 ± 0.12; for CCTGGATGTA: 1.02 ± 0.025; for CCTGGATTAG: 1.05 ± 0.041.
The same measure for CCTGGATTCA: 0.9888 ± 0.002; for CCTGGATTTA: 1.01 ± 0.011.
With CCTGGCTGAT, the switch fluorescence ratio is 1.11 ± 0.058.
Regarding CCTGGCTTGA, the switch fluorescence ratio stood at 0.996 ± 0.016.
The same measure for CCTGGGAGGA: 1.012 ± 0.0014; for CCTGGGCGTC: 1.037 ± 0.004; for CCTGGGGCGG: 1.07 ± 0.019.
As for CCTGGGGGAA, the switch fluorescence ratio was 1.025 ± 0.0073.
The result for CCTGGGGGAG reads 1.05 ± 0.11; that for CCTGGGGGGG, 1.03 ± 0.05; that for CCTGGGGTCT, 1.03 ± 0.015.
The same measure for CCTGGGGTTG: 1.05 ± 0.14; for CCTGGGTCTG: 1.001 ± 0.006.
With CCTGGGTGTG, the switch fluorescence ratio worked out at 1.05 ± 0.11.
For CCTGTAAATG, the switch fluorescence ratio amounted to 1.15 ± 0.21.
The result for CCTGTCTTCT reads 0.9869 ± 0.0061; that for CCTGTGATTC, 1.23 ± 0.058.
The same measure for CCTGTGCCCG: 1.01 ± 0.041.
The same measure for CCTGTTTATT: 0.974 ± 0.012; for CCTTAAGACA: 1.06 ± 0.015; for CCTTAGGTTT: 1.002 ± 0.0011.
Turning to CCTTATAATT, the switch fluorescence ratio is 1.02 ± 0.035.
On to CCTTATGGGG, for which the switch fluorescence ratio amounted to 1 ± 0.023.
The result for CCTTATTTCT reads 1 ± 0.031; that for CCTTGCAGAT, 1.99 ± 0.78; that for CCTTGGGGAA, 0.98 ± 0.013.
The same measure for CCTTGGGGTG: 1.06 ± 0.14.
The same measure for CCTTGTGGGA: 0.983 ± 0.011; for CCTTGTTTTT: 1.01 ± 0.01; for CCTTTAGATT: 1.01 ± 0.013.
As to CCTTTCACTC, the switch fluorescence ratio worked out at 1.124 ± 0.0035.
The same measure for CCTTTCAGGA: 0.9993 ± 0.0015; for CCTTTCGGGT: 0.982 ± 0.039; for CCTTTCGTGT: 1.19 ± 0.22.
Turning to CCTTTGCAGG, the switch fluorescence ratio was determined as 2.45 ± 0.27.
The result for CCTTTGCCCG reads 1.07 ± 0.17.
Turning to CCTTTTGTGG, the switch fluorescence ratio worked out at 1.015 ± 0.0068.
The same measure for CGAAAAGGTG: 1.05 ± 0.054.
The result for CGAAAATAAT reads 0.9817 ± 0.0022.
CGAAAATATC: the switch fluorescence ratio was found to be 0.989 ± 0.023.
The result for CGAAAATGTA reads 0.9772 ± 0.0089; that for CGAAAGAAAT, 1.02 ± 0.031; that for CGAAAGCAGG, 1.1681 ± 0.00099.
The same measure for CGAAAGGTTG: 0.939 ± 0.017.
The result for CGAAATGGCA reads 1.03 ± 0.045; that for CGAAATTACG, 1.04 ± 0.021.
Take CGAAGAAAGG: the switch fluorescence ratio is 1.16 ± 0.013.
As to CGAAGAGGCG, the switch fluorescence ratio came out at 0.997 ± 0.052.
The result for CGAAGAGGTC reads 1.02 ± 0.032.
Regarding CGAAGATCGA, the switch fluorescence ratio came to 0.982 ± 0.042.
The same measure for CGAAGCAGCG: 1.4 ± 0.044.
The result for CGAAGCTTAT reads 2.74 ± 0.53.
The same measure for CGAAGGCTGT: 1.003 ± 0.0095.
On to CGAAGGGGTG, for which the switch fluorescence ratio amounted to 0.9749 ± 0.0032.
The same measure for CGAAGTTGAC: 1.63 ± 0.13; for CGAAGTTTCG: 1.02 ± 0.017.
The result for CGAAGTTTTT reads 0.998 ± 0.004; that for CGAATAAGAA, 0.9383 ± 0.0074.
The same measure for CGAATATAGC: 1.02 ± 0.015; for CGAATCCAGG: 2.46 ± 0.062; for CGAATCCATT: 0.9869 ± 0.0033.
As to CGAATCCCCA, the switch fluorescence ratio stood at 1.07 ± 0.032.
The same measure for CGAATCGGTA: 0.969 ± 0.00014; for CGAATCGGTG: 1.01 ± 0.019; for CGAATGGGAC: 1.042 ± 0.007.
